Results reported in US20160279215A1, “NOVEL PEPTIDES AND COMBINATION OF PEPTIDES FOR USE IN IMMUNOTHERAPY AGAINST VARIOUS TUMORS” (immatics biotechnologies GmbH, priority 2015, published 2016).

Each substance was assayed against T1, HLA-A*02:01 (Homo sapiens, UniProt P04439, D140Y/D185E/D98H/E176V/E277Q/G131W/G231S/I119V/I121R/I166T/I218V/L300P/L318F/N151K/N90K/P208A/P217A/Q86G/Q94H/R138H/R169H/T345S) (assay: MHC binding assay: UV-ligand exchange with β2m ELISA (peptide exchange yield)). Settings: binding to HLA-A*02:01 evaluated by peptide exchange yield (UV-ligand exchange, β2m ELISA).
T1 construct: made in house
Source text: Candidate peptides for T cell based therapies according to the present invention were further tested for their MHC binding capacity (affinity). The individual peptide-MHC complexes were produced by UV-ligand exchange, where a UV-sensitive peptide is cleaved upon UV-irradiation, and exchanged with the peptide of interest as analyzed. Only peptide candidates that can effectively bind and stabilize the peptide-receptive MHC molecules prevent dissociation of the MHC complexes. To determine the yield of the exchange reaction, an ELISA was performed based on the detection of the light chain (β2m) of stabilized MHC complexes. The assay was performed as generally described in Rodenko et al. (Rodenko et al., 2006).
96 well MAXISorp plates (NUNC) were coated over night with 2 ug/ml streptavidin in PBS at room temperature, washed 4× and blocked for 1 h at 37° C. in 2% BSA containing blocking buffer. Refolded HLA-A*02:01/MLA-001 monomers served as standards, covering the range of 15-500 ng/ml. Peptide-MHC monomers of the UV-exchange reaction were diluted 100 fold in blocking buffer. Samples were incubated for 1 h at 37° C., washed four times, incubated with 2 ug/ml HRP conjugated anti-β2m for 1 h at 37° C., washed again and detected with TMB solution that is stopped with […]. Absorption was measured at 450 nm. Candidate peptides that show a high exchange yield (preferably higher than 50%, most preferred higher than 75%) are generally preferred for a generation and production of antibodies or fragments thereof, and/or T cell receptors or fragments thereof, as they show sufficient avidity to the MHC molecules and prevent dissociation of the MHC complexes.
For “21 (YLMDDFSSL; listed as Homo sapiens) [compound 21]”, the Peptide exchange was “+++ (≧50 = +++)”.
With “168 (VIFEGEPMYL; listed as Homo sapiens) [compound 168]” the Peptide exchange was “+++ (≧50 = +++)”.
For “283 (ALSELLQQV; listed as Homo sapiens) [compound 283]”, the Peptide exchange was “+++ (≧50 = +++)”.
In the case of “153 (KLVELEHTL; listed as Homo sapiens) [compound 153]”, the Peptide exchange is reported as “+++ (≧50 = +++)”.
In the case of “59 (ALADGIKSFLL; listed as Homo sapiens) [compound 59]”, the Peptide exchange is reported as “+++ (≧50 = +++)”.
“6 (FLNAIETAL; listed as Homo sapiens) [compound 6]” was tested, and the Peptide exchange was “++++ (≧75% = ++++)”.
With “270 (TLLTFFHEL; listed as Homo sapiens) [compound 270]” the Peptide exchange was “+++ (≧50 = +++)”.
“228 (SLLELDGINLRL; listed as Homo sapiens) [compound 228]” was tested, and the Peptide exchange was “+++ (≧50 = +++)”.
For “130 (QLYGSAITL; listed as Homo sapiens) [compound 130]”, the Peptide exchange was “+++ (≧50 = +++)”.
In the case of “38 (VLQQESNFL; listed as Homo sapiens) [compound 38]”, the Peptide exchange is reported as “++ (≧20% = ++)”.
“65 (SLSEKSPEV; listed as Homo sapiens) [compound 65]” was tested, and the Peptide exchange was “++ (≧20% = ++)”.
“231 (LLDDIFIRL; listed as Homo sapiens) [compound 231]” was tested, and the Peptide exchange was “+++ (≧50 = +++)”.
In the case of “72 (VLSTRVTNV; listed as Homo sapiens) [compound 72]”, the Peptide exchange is reported as “++ (≧20% = ++)”.
In the case of “134 (SLYKSFLQL; listed as Homo sapiens) [compound 134]”, the Peptide exchange is reported as “++ (≧20% = ++)”.
“106 (VLLGSVVIFA; listed as Homo sapiens) [compound 106]” was tested, and the Peptide exchange was “++ (≧20% = ++)”.
In the case of “229 (YLYELEHAL; listed as Homo sapiens) [compound 229]”, the Peptide exchange is reported as “++ (≧20% = ++)”.
“100 (ALQSFEFRV; listed as Homo sapiens) [compound 100]” was tested, and the Peptide exchange was “+++ (≧50 = +++)”.
With “252 (SLMEKNQSL; listed as Homo sapiens) [compound 252]” the Peptide exchange was “++ (≧20% = ++)”.
In the case of “58 (HLLGEGAFAQV; listed as Homo sapiens) [compound 58]”, the Peptide exchange is reported as “+++ (≧50 = +++)”.
With “162 (GLLGNLLTSL; listed as Homo sapiens) [compound 162]” the Peptide exchange was “+++ (≧50 = +++)”.
“45 (FLPVSVVYV; listed as Homo sapiens) [compound 45]” was tested, and the Peptide exchange was “+++ (≧50 = +++)”.
In the case of “181 (LLWAPTAQA; listed as Homo sapiens) [compound 181]”, the Peptide exchange is reported as “+++ (≧50 = +++)”.
For “95 (KLIDEDEPLFL; listed as Homo sapiens) [compound 95]”, the Peptide exchange was “+++ (≧50 = +++)”.
“44 (AVFNLVHVV; listed as Homo sapiens) [compound 44]” was tested, and the Peptide exchange was “+++ (≧50 = +++)”.
“188 (VLGEEQEGV; listed as Homo sapiens) [compound 188]” was tested, and the Peptide exchange was “++ (≧20% = ++)”.
“22 (LMYPYIYHV; listed as Homo sapiens) [compound 22]” was tested, and the Peptide exchange was “+++ (≧50 = +++)”.
“214 (ALFETLIQL; listed as Homo sapiens) [compound 214]” was tested, and the Peptide exchange was “+++ (≧50 = +++)”.
With “20 (ALVEKGEFAL; listed as Homo sapiens) [compound 20]” the Peptide exchange was “++ (≧20% = ++)”.
“86 (SLFSNIESV; listed as Homo sapiens) [compound 86]” was tested, and the Peptide exchange was “+++ (≧50 = +++)”.
With “281 (LLLESDPKVYSL; listed as Homo sapiens) [compound 281]” the Peptide exchange was “++ (≧20% = ++)”.
In the case of “194 (KLLEEVQLL; listed as Homo sapiens) [compound 194]”, the Peptide exchange is reported as “++ (≧20% = ++)”.
In the case of “47 (GLNGFNVLL; listed as Homo sapiens) [compound 47]”, the Peptide exchange is reported as “+++ (≧50 = +++)”.
With “227 (SEMEELPSV; listed as Homo sapiens) [compound 227]” the Peptide exchange was “+ (≧10% = +)”.
